According to paper doi:10.1101/2025.06.17.660072:
pKd: −log10 of the molar value.

Test system: PSMα3
Assay: EMSA

Poly (A) RNA, oligoA
pKd: 4.02

Poly (AU) RNA, oligoA/oligoU duplex
pKd: 4.21
